Data reported in the supplement of paper PMC10567573.

B1: CDC25A (parent)
chain: TVAGKHQDLKYISPEIMASVLNGK

Variants of: B1
Assay: protein stability index of a GFP-peptide fusion (GPS, HEK-293T) (PSI 1-6); higher = more stable
Settings: c terminus: a fixed tail appended
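Also: lentivirally expressed fusions sorted by FACS into six bins by GFP to DsRed ratio, PSI derived from sequencing read proportions per bin multiplied by bin number.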

Protein stability index of substitutions, site by site:
I16: V 3.47 | A 3.66 | N 3.8 | H 3.97 | C 3.44 | Y 2.85 | K 3.42 | T 3.62 | P 4.45 | F 2.87 | W 2.87 | G 3.84 | M 3.62 | R 3.73 | L 2.86 | Q 4.28 | E 4.29 | S 3.78 | D 4.25
E15: C 2.25 | G 3.08 | W 1.76 | M 2.19 | Y 1.84 | T 2.63 | F 2.07 | Q 2.82 | N 2.95 | L 1.99 | R 2.64 | D 3.42 | H 2.74 | V 1.89 | S 3.09 | K 2.68 | A 2.77 | I 1.78 | P 3.05
Q7: N 2.46 | D 3.06 | F 2.3 | A 2.85 | G 3.08 | M 2.7 | W 2.36 | H 3.27 | L 2.62 | P 3.24 | S 3.16 | T 2.69 | I 2.37 | Y 2.49 | V 3.17 | K 2.6 | E 3.52 | C 2.79 | R 2.64
P14: R 2.91 | L 2.4 | A 2.41 | E 3.49 | F 2.24 | N 3.29 | H 2.19 | Y 2.79 | W 2.13 | K 2.96 | D 3.4 | M 2.02 | V 2.7 | I 2.76 | G 3.14 | T 2.55 | C 1.85 | Q 2.87 | S 2.55
D8: F 1.87 | L 2.05 | C 2.32 | I 2.35 | S 2.63 | P 2.91 | H 2.51 | N 2.62 | G 3.06 | V 2.66 | K 2.54 | E 3.21 | M 2.25 | T 2.56 | A 2.65 | Q 2.5 | R 2.28 | Y 1.9 | W 1.68
H6: R 2.81 | I 2.63 | E 3.66 | D 3.92 | T 3.24 | C 2.57 | F 2.75 | L 2.13 | W 2.24 | S 2.94 | Y 3.25 | M 2.26 | G 3.06 | Q 3.43 | N 2.96 | A 3.73 | K 3.27 | V 2.45 | P 3.38
L9: D 4.09 | K 3.74 | H 3.65 | I 3.25 | P 3.37 | F 3.1 | E 3.94 | N 3.72 | S 3.33 | C 3.13 | G 3.77 | M 3.29 | Y 3.08 | W 2.81 | R 3.51 | T 3.47 | Q 3.71 | V 3.27 | A 3.44
G4: F 2.38 | M 2.89 | E 3.78 | C 2.82 | Y 3.09 | V 3.38 | D 3.27 | A 2.82 | W 2.27 | R 3.5 | H 3.35 | P 3.44 | L 3.16 | Q 3.42 | K 3.06 | T 3.11 | S 3.39 | I 2.68 | N 3.54
I12: D 4.16 | L 3.16 | N 3.46 | V 3.71 | S 3.91 | R 3.58 | P 3.57 | M 3.48 | H 3.29 | G 3.82 | T 3.76 | Q 4.04 | A 3.49 | Y 3.37 | W 2.64 | E 3.83 | C 3.23 | K 3.83 | F 2.94
S13: L 2.49 | K 3.16 | D 3.73 | H 2.71 | C 2.43 | E 3.69 | R 3.21 | P 3.12 | F 2.39 | Q 3.53 | I 2.19 | V 2.65 | T 3.15 | W 2.12 | A 3.4 | Y 2.63 | G 3.37 | N 3.32 | M 2.31
M17: S 4.12 | Y 3.1 | N 3.74 | T 3.22 | C 3.42 | F 2.78 | A 3.96 | P 4 | G 3.88 | E 4.21 | I 2.71 | H 3.8 | W 2.46 | V 3.42 | Q 3.73 | L 2.64 | K 3.96 | R 3.87 | D 3.89
S19: M 2.38 | R 3.29 | F 2.01 | P 3.65 | C 2.46 | I 2.16 | K 3.24 | G 2.77 | L 1.86 | D 3.41 | V 2.13 | W 1.94 | T 2.83 | H 2.88 | E 4.06 | A 3.1 | Q 3.28 | Y 1.88 | N 3.61
V20: A 3.56
V2: L 2.96 | Q 3.35 | P 3.51 | S 3.28 | W 2.55 | M 3.11 | T 3.41 | N 3.11 | R 3.21 | Y 2.79
A18: G 3.44 | F 2.73 | I 2.13 | R 2.71 | M 2.33 | Q 3.34 | Y 2.65 | T 3.74 | L 2.53 | V 2.54 | E 4 | D 3.45 | W 1.97 | H 3.08 | K 3.16 | S 3.3 | N 3.1 | P 3.6 | C 3.11
K10: Q 2.85 | M 2.69 | H 2.88 | P 3.21 | C 2.52 | W 1.62 | S 2.99 | E 3.42 | I 1.69 | D 3.85 | G 3.44 | L 1.9 | Y 1.76 | F 1.78 | A 2.99 | N 3.34 | V 2.24 | R 2.8 | T 3.31
A3: S 2.93 | K 3.41 | M 2.82 | V 3.38 | W 2.16 | H 2.85 | T 3.31 | I 2.61 | Q 2.7 | L 2.69 | F 2.56 | R 2.85 | P 3.52 | C 2.47 | N 2.79 | D 3.74 | E 3.39 | G 3.14 | Y 2.79
Y11: G 3.87 | S 3.71 | T 3.79 | Q 3.47 | C 3.32 | F 2.77 | W 2.78 | V 3.29 | A 3.29 | E 4.09 | M 3.16 | P 3.95 | K 3.53 | L 3.26 | I 3.52 | R 3.59 | D 4.38 | H 3.73 | N 3.86
K5: T 3.68 | D 3.56 | E 3.5 | A 3.45 | R 3.2 | I 2.55 | Y 3.03 | S 3.5 | L 3.06 | P 3.17 | C 2.61 | F 3.2 | N 3.07 | G 3.6 | H 3.54 | W 2.75 | M 3.01 | V 3.21 | Q 3.53
